From the nanobody polyreactivity screen of Harvey et al. (2022)

Assay: yeast display, Sf9 membrane polyspecificity reagent, FACS + sequencing; frameworks hold sequencing errors
Summary of the method: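 Nanobodies from a synthetic yeast display library (Saccharomyces cerevisiae BJ5465), induced 36–48 hours with galactose, were stained 1 hour at 4 °C with 10% biotinylated, detergent-solubilized Sf9 membrane reagent, enriched on streptavidin microbeads, then FACS-sorted. Anti-HA (expression) and streptavidin (reagent binding) fluorescence set low and high (top ~1%) gates. Polyreactivity labels come from the gate of origin. Genes were colony-PCR amplified, MiSeq 2 × 250 sequenced and filtered by CDR length.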

Row | Sequence | polyreactivity (PSR sort gate)
1 | QVQLVESGGGLVEAGGSLRLICAASGSIFYFYGMGWYRQAPGKEREVVAAITYSGGSTYYADSVKGRYTISRDNAKNTVDLQMNSLIPEDTAVYYCNADSVLELYWKMDYWGQGTQVTVSS | low polyreactivity
2 | QVQLVESGGGLVEAGGSLRLSCAASARTFIGNAMVWYRQAPGKERELVAGIDSDGSTNYADSVNGRFTSSRDNAKNTVYLQMNSLKPEDTAVYYCAAVQGYRFYEYYYWGQGTQVTVSS | low polyreactivity
3 | QVQLVESGGGLVEAGGSLRLSCAASGFTFYHNAMGWYRPAPGKERELVAAISSGGTTNYADSVKGRFTISRDNAKNTVYLQMNSLTPEDTAVYYCAARGWGPTRAYDYWGQGTQVTVSS | high polyreactivity
4 | QVQLVESGGGLVEAGGSLRLSCAASGLTFIVKAIGWYRQAPGKEREFVAAIRSGDGNTHYADSLKGRYTISRDNAKNTVYFQMNSLKPVDTAVYYCNAGFPRSYRFDYWGQGTQVTVSS | high polyreactivity
5 | QVQLVESGGGLVEAGGSLRLSCAASGRIFKVYAMGWYRQGPGKERELVAAISRSCGSTYYADSVKGRFTISRDKAKITVSLQMNSLKPEDTAVYYCNAYFVSGHAGGYDYWGQGTQVTVSS | high polyreactivity
6 | QVQLVESGGGLVEAGGSLRLSCAASGRTFQYYPMGWYRQAPGKERDFVAAITRTGARTYYADSVKGRFTISRDNAKNTVYLQMYSLKPEDTAVYYCAISLTFYSWRDYGYWGQGSQVTVSS | high polyreactivity
7 | QVQLVESGGGLVEAGGSLRLSCAASGYIFGSYAMGWYRHAPGKERELVASISKSGGSTYYADSVKGRFTISRDNAKNTVYLQMNSLKPEDTAVYYCAAAGIGGGGWGQGTQVTVSS | low polyreactivity
8 | QVQLVESGGGLVEAGGSLRLSCEASGFNFSRYVMGWYRQAPGKERELVAVISYRGGSTYYADSVKGRFTISRDYAKITVYLQMNSLKPEDTAVYYCNADTIPDGEDRYDYWGQGTQVTVSS | low polyreactivity
9 | QVQLVESGGGLVEAGGSLRLSGAASGSIFRYYSMGWYRQAPGKERELVAAITYSGGTTYYADSVKGRFTISRDNAKNTVYLQMNSLKPEDTAVYYCAATFQANYFSGYYTVYLSDYRGQGTQVTVSS | low polyreactivity
10 | QVQLVESGGGLVEAGGTLRLSCAASGSIFPINAMGWYRQAPGKQWELVAAITVSDGRTYYADSVKGRFTISRDTAKNTVYLQMNSLKPEDTAVYYCAKSSHAREYYYWGQGNQVTVSS | low polyreactivity
11 | QVQLVESGGGLVHAGGSIRLSCSASGRTVGVNMGWYRQSPGKERELVAVISSGDSTNYADSVKGRFTISRDNAKNTFYLQMNSLKQEDTAVYYCNAYGSDRLTLDDYWGQGTQVTVSS | low polyreactivity
12 | QVQLVESGGGLVHAGGSLLLSCAASGFISSRYAMGWYRQAPGKERELVAAISRGGGSTYYADSVKGRFTISRDNAKNSVYLQMNSLKPEYTAVYYCAAAARGSPQYDYWGQGSQVTVSS | high polyreactivity
13 | QVQLVESGGGLVHAGGSLLLSCSASGSIFTVNAMGWYRQAPGKERELVAAISSGGSTHYADSVKGRFTISRDNAKNTVYLQMISLKPEDTAVYYCAAVYVPYYGYYTRYDYWGQGTQVTVSS | low polyreactivity
14 | QVQLVESGGGLVHAGGSLRISCAASGRTFSRNAMGWYRQAPGKERELVATISRRGGSTNYADSVKGRFTISRDYAKNTVYLQMNSLKPDDTAVYYCAAGYRVRDDKVYGIVRPMDYWGQGTQVTVSS | high polyreactivity
15 | QVQLVESGGGLVHAGGSLRLRCAASGRTFYFSNMGWYRQAPGKQRELVATIRWSAGSTYYADSVKGRFTISRDNAKNSVYLQMKSLKPEDTAVYYCNGDPYVYSSWQYGYWGQGTQVTVSS | high polyreactivity
16 | QVQLVESGGGLVHAGGSLRLSCAACGNIFKYYTMGWYREAPGKERELVDAITSGGRTNYADSVKGRFTISRDNAKNTVYLKMNSLKPEDTAVYYCAAYDVIYSQGFDYWGQGTQVTVSS | low polyreactivity

Row | Sequence | polyreactivity (PSR sort gate)
17 | QVQLVESGGGLVHAGGSLRLSCAACGRTFGRYPMGSYRQAPGKERELVAAITVGGGSTYYADSVKGRFTISRDYAKNTVYLQMNSLKPEDTAVYYCNALHTYTYRYDYYYWGQGTQVTVSS | high polyreactivity
18 | QVQLVESGGGLVHAGGSLRLSCAACGSIYKYNAMGWYRQAPGKERELVAAISYSGCSTYYSDSVNGRFTISRDNAKNTVYLQMNSLKPEDTAVYYCAKSPRASQYNMYDYWGQGTKVTVSS | high polyreactivity
19 | QVQLVESGGGLVHAGGSLRLSCAASGFIFGSYTMVWYRTAPGKERELVATITLSDGSTYYADSVNGRFTISRDNANNTVFLQMNSLKPEDTAVYYCNKDKVVVRYDYWGQGTQVTVSS | low polyreactivity
20 | QVQLVESGGGLVHAGGSLRLSCAASGFILRSYGMGWYRQAPGKERELVAAITRGGSTYYADSVKGRFTISRDNAKNTVYLQMNSLKPEDTAVYYCAARTRYYSQQFDYWGQGTQVTVSS | high polyreactivity
21 | QVQLVESGGGLVHAGGSLRLSCAASGFTFGQYAMGWYRQAPGKERELVAAIRSGGSTNYADSVKGRFTISRDNAKNTVYLQMNSLKPEDTAVYYCAAGYRRGWVTMGYWGQGTQVTVSS | high polyreactivity
22 | QVQLVESGGGLVHAGGSLRLSCAASGFTFKENAMGWSRPAPGKERELVAAISSTGGSTYYADSVKGRFTISRDNATNNVYLQMHSLNPDDTAVYYCAASTYWYDGDYWGQGTQVTVSS | high polyreactivity
23 | QVQLVESGGGLVHAGGSLRLSCAASGFTFLYNSMGWYRQAPGKERELVASINSGGSTNYADSVKGRFTISRDNAKNTVYLQMNSLKPEDTAVYYCNAKRHVRKGDYWGQGTQVTVSS | low polyreactivity
24 | QVQLVESGGGLVHAGGSLRLSCAASGFTFRSYTMGWYRQAHGKERELVAAITSRGTSTYYADSVKGRFTISRDNAKNTVYLQMNSLKPEDTAVYYCAAPIYNGYASWQVYYWGQGTQVTVSS | high polyreactivity
25 | QVQLVESGGGLVHAGGSLRLSCAASGFTLRKYVMGWYRQAPGKERELVAAITSYASSTYFADSVKGRFTISRDNSKNTVYLQMNSLKPEDSAVYYCAARRYGEPYGYWGQGTQVTVSS | high polyreactivity
26 | QVQLVESGGGLVHAGGSLRLSCAASGGILVFYAMGWYRQAPGKERELVAAINVSGGSTYYADSVKGRYTISRDNAKNTVYLQMNSLKPEDTAVYYCAALGPYLDYGVQYGYWGQGTQVTVSS | low polyreactivity
27 | QVQLVESGGGLVHAGGSLRLSCAASGGTFGHYTMGWYRQAPGKERELVAAISGSGGTTYYADSVKGRFTISRDNAKNTVYLQMNSLKPEDTAVYYCAAYSGAYRKWLYDYWGQGTQVTVSS | high polyreactivity
28 | QVQLVESGGGLVHAGGSLRLSCAASGITFSDNTMGWYRQAPGKERELVAAISWRGGRTYYADSVKGRFTISRDYAKNTVSLQMNSLKPEDTAVYYCNAVTSSKARSSSYDYWGQGTQVTVSS | high polyreactivity
29 | QVQLVESGGGLVHAGGSLRLSCAASGLIFTNAMGWYRQAPGKEREFVAAINSSGGSTYADSVKGRFTISRDNAKNTVYLQMNSLKPEDTAVYFCAARVIYLYEYWGQGTQVTVSS | low polyreactivity
30 | QVQLVESGGGLVHAGGSLRLSCAASGLISYRYAMGWYRQAPGKERELVAAISWRGGSTYYADSVKGRFTISRDNAKNTVYLQMNSLKPDDTAVYYCNALGLGLFDYWGQGTQVTVSS | high polyreactivity
31 | QVQLVESGGGLVHAGGSLRLSCAASGNIFVEYAMGWYRQAPGKERELVAAITNSGGRTHYADSVKGRFTISRDNAKNTVYLQMNSLKPEDTAVYYCAAPTKYRSRRYYWGQGTQVTVSS | high polyreactivity
32 | QVQLVESGGGLVHAGGSLRLSCAASGRIFIANAMGWYRQAPGNERELVAGIRGSGGRTYYADSVKGRFTISRDNAKNTVYLQMNSLKPEDTAVYDCNARTPGRLGRFDYWGQGTQVTVSS | low polyreactivity
